From article PMC2121020 (The Journal of Cell Biology, 1996)

B1: recombinant mouse moesin (natural protein)
chain: MPKTISVRVTTMDAELEFAIQPNTTGKQLFDQVVKTIGLREVWFFGLQYQDTKAFSTWLKLNKKVTAQDVRKESPLLFKFRAKFYPEDVSEELIQDITQRLFFLQVKEGILNDDIYCPPETAVLLASYAVQSKYGDFNKEVHKSGYLAGDKLLPQRVLEQHKLNKDQWEERIQVWHEEHRGMLREDAVLEYLKIAQDLEMYGVNYFSIKNKKGSELWLGVDALGLNIYEQNDRLTPKIGFPWSEIRNISFNDKKFVIKPIDKKAPDFVFYAPRLRINKRILALCMGNHELYMRRRKPDTIEVQQMKAQAREEKHQKQMERALLENEKKKRELAEKEKEKIEREKEELMEKLKQIEEQTKKAQQELEEQTRRALELEQERKRAQSEAEKLAKERQEAEEAKEALLQASRDQKKTQEQLASEMAELTARISQLEMARKKKESEAVEWQQKAQMVQEDLEKTRAELKTAMSTPHVAEPAENEHDEQDENGAEASAELRADAMAKDRSEEERTTEAEKNERVQKHLKALTSELANARDESKKTANDMIHAENMRLGRDKYKTLRQIRQGNTKQRIDEFESM
B2: recombinant mouse ezrin (natural protein)
chain: MPKPINVRVTTMDAELEFAIQPNTTGKQLFDQVVKTIGLREVWYFGLQYVDNKGFPTWLKLDKKVSAQEVRKENPVQFKFRAKFYPEDVAEELIQDITQKLFFLQVKDGILSDEIYCPPETAVLLGSYAVQAKFGDYNKEMHKSGYLSSERLIPQRVMDQHKLSRDQWEDRIQVWHAEHRGMLKDSAMLEYLKIAQDLEMYGINYFEIKNKKGTDLWLGVDALGLNIYEKDDKLTPKIGFPWSEIRNISFNDKKFVIKPIDKKAPDFVFYAPRLRINKRILQLCMGNHELYMRRRKPDTIEVQQMKAQAREEKHQKQLERQQLETEKKRRETVEREKEQMLREKEELMLRLQDYEQKTKRAEKELSEQIEKALQLEEERRRAQEEAERLEADRMAALRAKEELERQAQDQIKSQEQLAAELAEYTAKIALLEEARRRKEDEVEEWQHRAKEAQDDLVKTKEELHLVMTAPPPPPPPVYEPVNYHVQEGLQDEGAEPMGYSAELSSEGILDDRNEEKRITEAEKNERVQRQLLTLSNELSQARDENKRTHNDIIHNENMRQGRDKYKTLRQIRQGNTKQRIDEFEAM
B3: recombinant mouse radixin (natural protein)
chain: MPKPINVRVTTMDAELEFAIQPNTTGKQLFDQVVKTVGLREVWFFGLQYVDSKGYSTWLKLNKKVTQQDVKKENPLQFKFRAKFFPEDVSEELIQEITQRLFFLQVKEAILNDEIYCPPETAVLLASYAVQAKYGDYNKEIHKPGYLANDRLLPQRVLEQHKLTKEQWEERIQNWHEEHRGMLREDSMMEYLKIAQDLEMYGVNYFEIKNKKGTELWLGVDALGLNIYEHDDKLTPKIGFPWSEIRNISFNDKKFVIKPIDKKAPDFVFYAPRLRINKRILALCMGNHELYMRRRKPDTIEVQQMKAQAREEKHQKQLERAQLENEKKKREIAEKEKERIEREKEELMERLRQIEEQTVKAQKELEEQTRKALELEQERQRAKEEAERLDRERRAAEEAKSAIAKQAADQMKNQEQLAAELAEFTAKIALLEEAKKKKEEEATEWQHKAFAAQEDLEKTKEELKTVMSAPPPPPPPPVIPPTENEHDEQDENSAEASAELSSEGVMNHRSEEERVTETQKNERVKKQLQALSSELAQARDETKKTQNDVLHAENVKAGRDKYKTLRQIRQGNTKQRIDEFEAM

How the values were obtained:
CD44 of BHK cells = molecular target: T1, CD44 of BHK cells (hamster (endogenous in BHK), UniProt Q60522 23-431); test: co-sedimentation
T1 sequence: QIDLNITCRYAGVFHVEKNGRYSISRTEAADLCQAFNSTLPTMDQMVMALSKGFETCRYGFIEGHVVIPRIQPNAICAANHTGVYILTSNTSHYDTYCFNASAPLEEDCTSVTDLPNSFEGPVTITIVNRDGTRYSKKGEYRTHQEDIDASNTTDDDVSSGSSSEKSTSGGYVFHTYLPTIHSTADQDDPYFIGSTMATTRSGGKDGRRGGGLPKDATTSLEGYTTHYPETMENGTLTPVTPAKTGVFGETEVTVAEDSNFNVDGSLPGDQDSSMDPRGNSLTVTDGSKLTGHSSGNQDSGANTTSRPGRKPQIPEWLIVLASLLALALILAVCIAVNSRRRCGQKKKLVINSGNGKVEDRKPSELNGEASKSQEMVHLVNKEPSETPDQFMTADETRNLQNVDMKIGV

recombinant mouse ezrin = molecular target: B2; test: pull-down
recombinant mouse moesin = molecular target: B1; test: pull-down
[1] = molecular target: B3; test: pull-down

## B1
CD44 of BHK cells
  amount recovered in the insoluble fraction (of about 0.8 ug added): ~0.05 µg

## B2
CD44 of BHK cells
  amount recovered in the insoluble fraction (of about 0.8 ug added): ~0.05 µg

## B3
CD44 of BHK cells
  amount recovered in the insoluble fraction (of about 0.8 ug added): ~0.05 µg

B4: GST fusion protein with the cytoplasmic domain of mouse CD44 (domain or fragment)
chain: NSRRRCGQKKKLVINGGNGTVEDRKPSELNGEASKSQEMVHLVNKEPSETPDQCMTADETRNLQSVDMKIGV
Recombinant mouse ezrin
  binding result: binds
Recombinant mouse moesin
  Kd: 9.3 ± 1.6 nM
[1]
  binding result: binds
